The record followed here is the RNAGym collection of RNA variant scans (doi:10.7554/elife.90254).

B1: LINE1-full (parent)
chain: UACGUAGGUGGUUUUCCCCUGAUAGUGCUAAGGGGGCCUGGAAGUUUGGACUGGGCAGAGCUCAACACAGCGUGGCAAAGUGGCUGUGGCUAGACUGCCUCUCUGGAUUCCUCGUCACUCAGCAGGGCAUCUCUGAGAGAAAUGCC

Variants of B1 are the subject of this series. Description: self-cleavage, relative activity (ratio to wild type); higher = more cleavage; in vitro, sequencing; the parent is a self-cleaving ribozyme.
Regarding UACGUAGGUGGUUUUCCCCUGAUAGUGCUAAGAGGGCCCGGAAGUUUGGACUGGGCAGAGCUCAACACAGCGUGGCAAAGUGGCUGUGGCUAGACUGCCUCUCUGGAUUCCUCGUCACUCAGCAGGGCAUCUCUGAGAGAAAUGCC, the self-cleavage is 1.16.

As to UACGUAGGUGGUUUUCCCCUGAUAGUGCUAAGCGGGCCUGGAAGUUUGGACUGGGCAGAGCUCAACACAGCGUGGCAAAGUGGCUGUGUCUAGACUGCCUCUCUGGAUUCCUCGUCACUCAGCAGGGCAUCUCUGAGAGAAAUGCC, the self-cleavage worked out at 0.06.

For UACGUAGGUGGUUUUCCCCUGAUAGUGCUAAGAGGGCCUGGAAGUUUGGACUGGGCAGAGCUCAACACAGCGUGGCAAAGUGGCUGUGGCUAGACUGCCUCUCUGGAUUCCUCGUCACUCAGCAGGGCAUCUCUGAGAGAAAAGCC, the self-cleavage stood at 1.07.

Turning to UACGUAGGUGGUUUUCCCCUGAUAGUGCUAAGAGGGCCUGGAAGUUUGGACUGGGCAGAGCUCAACACAGCGUGGCAAAGUGGCUGUGGCUAGACUGCCUCUCUGGAUUCCUCGUCACUCAGCAGGGCAUCUCUGAGAGAAACGCC, the self-cleavage worked out at 1.44.

For UACGUAGGUGGUUUUCCCCUGAUAGUGCUAAGAGGGCCUGGAAGUUUGGACAGGGCAGAGCUCAACACAGCGUGGCAAAGUGGCUGUGGCUAGACUGCCUCUCUGGAUUCCUCGUCACUCAGCAGGGCAUCUCUGAGAGAAAUGCC, the self-cleavage is 0.53.

As for UACGUAGGUGGUUUUCCCCUGAUAGUGCUAAGCGGGCCUGGAAGUUUGGACUGGGCAGAGCUCAACACAGCGUGGCAAAGUGGCUGUGGCUAGACUGCCUCUCUGGAUUCCUCGCCACUCAGCAGGGCAUCUCUGAGAGAAAUGCC, the self-cleavage was 2.26.

As for UACGUAGGUGGUUUUCCCCUGAUAGUGCUAAGUGGGCCUGGAAGUUUGGACUGGGCAGAGCUCAACACAGCGUGGCAAAGUGGCUGUGGCUAGACUGCCUCUCUGGAUUCCUCGUCACUCGGCAGGGCAUCUCUGAGAGAAAUGCC, the self-cleavage is 0.64.

Consider UACGUAGGUGGUUUUCCCCUGAUAGUGCUAAGAGGGCCUGGAAGUUUGGACUGGGCAGAGCUCAACACAGCGUGGCAAAGUGGCUGUGGCUAGACUGCCUCUCUGGAUUCCUCGUCACUCAGCAGGGCACCUCUGAGAGAAAUGCC, for which the self-cleavage amounted to 1.04.

As for UACGUAGGUGGUUUUCCCCUGAUAGUGCUAAGUGGGCCUGGAAGUUUGGACUGGGCAGAGCUCAACACAGCGUGGCGAAGUGGCUGUGGCUAGACUGCCUCUCUGGAUUCCUCGUCACUCAGCAGGGCAUCUCUGAGAGAAAUGCC, the self-cleavage was 1.78.

As to UACGUAGGUGGUUUUCCCCUGAUAGUGCUAAGUGGGCCUGGAAGUUUGGACUGGGCAGAGCUCAACACAGCGUGGCCAAGUGGCUGUGGCUAGACUGCCUCUCUGGAUUCCUCGUCACUCAGCAGGGCAUCUCUGAGAGAAAUGCC, the self-cleavage is 0.83.

As to UACGUAGGUGGUUUUCCCCUGAUAGUGCUAAGCGGGCCUGGAAGCUUGGACUGGGCAGAGCUCAACACAGCGUGGCAAAGUGGCUGUGGCUAGACUGCCUCUCUGGAUUCCUCGUCACUCAGCAGGGCAUCUCUGAGAGAAAUGCC, the self-cleavage amounted to 1.95.

With UACGUAGGUGGUUUUCCCCUGAUAGUGCUAAGAGGGCCUGGAAGUUUGGACUGGGCAGAGCUCAACACAGCGUGGCAAAGUGGCUGUGGCUAGACUGCCCCUCUGGAUUCCUCGUCACUCAGCAGGGCAUCUCUGAGAGAAAUGCC, the self-cleavage came out at 1.28.

As for UACGUAGGUGGUUUUCCCCUGAUAGUGCUAAGAGGGCCUGGAAGUCUGGACUGGGCAGAGCUCAACACAGCGUGGCAAAGUGGCUGUGGCUAGACUGCCUCUCUGGAUUCCUCGUCACUCAGCAGGGCAUCUCUGAGAGAAAUGCC, the self-cleavage stood at 1.12.

For the variant UACGUAGGUGGUUUUCCCCUGAUAGUGCUAAGUGGGCCUGGAAGUUUGGACUGGGCAGAGCUCAACACAGCGUGGCAAAGUGGCUGUGGCUAGACUGCCUCUCUGGAUUCCUCGUCACUCAGCAGGGCGUCUCUGAGAGAAAUGCC, the self-cleavage came to 1.34.

Regarding UACGUAGGUGGUUUUCCCCUGAUAGUGCUAAGCGGGCCUGGAAGUUUGGACUGGGCAGAGCUCAACACAGCGUGGCAAAGUGGCUGUGGCUAGACUGCCUCUCUGGAUUCCUCGUCACUCAGCAGGGCAUCUCUGAGAGAACUGCC, the self-cleavage turned out to be 1.28.

Turning to UACGUAGGUGGUUUUCCCCUGAUAGUGCUAAGAGGGCCUGGAAGUUUGGACUGGGCAGAGCUCAACGCAGCGUGGCAAAGUGGCUGUGGCUAGACUGCCUCUCUGGAUUCCUCGUCACUCAGCAGGGCAUCUCUGAGAGAAAUGCC, the self-cleavage was 0.63.

For the variant UACGUAGGUGGUUUUCCCCUGAUAGUGCUAAGUGGGCCUGGAAGUUUGGACUGGGCAGAGCUCAACACAGCGUGGCAAAGUGGCUGUGGCUAGACUGCCUCUCUGGGUUCCUCGUCACUCAGCAGGGCAUCUCUGAGAGAAAUGCC, the self-cleavage was 1.74.

Regarding UACGUAGGUGGUUUUCCCCUGAUAGUGCUAAGAGGGCCUGGAAGUUUGGACUGGGCAGAGCUCAACACAGCGUGGCAAAGUGGCUGUGGCUAGACUGCCUCUCUGGAUUCCUCGUCACUCAGCAGGGCAUCUCUGAGAGGAAUGCC, the self-cleavage is 1.29.

Consider UACGUAGGUGGUUUUCCCCUGAUAGUGCUAAGAGGGCCUGGAAGUUUGGACUGGGCAGAGCUCAACACAGCGUGGCAAAGUGGCUGUGGCUAGACUGCCUCUCUGGAUUCCUCGUCACUCAGCAGGGCAUCUCUGAGAGAAUUGCC, for which the self-cleavage stood at 1.43.

UACGUAGGUGGUUUUCCCCUGAUAGUGCUAAGAGGGCCUGGAAGUUUGGACUGGGCAGAGCUCAACACAGCGUGGCAAAGUGGCUGUGGCUAGACUGCCUCUCUGGAUUCCUCGUCACUCAGCAGGGCAUCUCUGAGUGAAAUGCC: the self-cleavage was found to be 1.19.

For the variant UACGUAGGUGGUUUUCCCCUGAUAGUGCUAAGAGGGCCUGGAAGUUUGGACUGGGCAGAGCUCAACACAGCGUGGCAAAGUGGCUGUGGCUAGACUGCCUCUCUGGAUUCCUCGUCACUCAGCAGGGCAUCUCUGGGAGAAAUGCC, the self-cleavage was 1.35.

For the variant UACGUAGGUGGUUUUCCCCUGAUAGUGCUAAGAGGGCCUGGAAGUUUGGACUGGGCAGAGCUCAACACAGCGUGGCAAAGUGACUGUGGCUAGACUGCCUCUCUGGAUUCCUCGUCACUCAGCAGGGCAUCUCUGAGAGAAAUGCC, the self-cleavage was 0.92.

On to UACGUAGGUGGUUUUCCCCUGAUAGUGCUAAGUGGGCCUGGAAGUUUGGACUGGGCAGAGCUCAACACAGCGUGGCAAAGUGGCUGUGGCUAGACUGCCUCUCUGGAUUCCUCGUCACUCAGCAGGGCAUCUCUGAGGGAAAUGCC, for which the self-cleavage turned out to be 1.68.

Regarding UACGUAGGUGGUUUUCCCCUGAUAGUGCUAAGCGGGCCUGGAAGUUUGGACUGGGCAGAGCUCAACACAGCGUGGCAAAGUGGCUGUGGCUAGACUGCCUCUCUGGAUUCCUCGUCACUCAGCAGGGCAUCUCUGGGAGAAAUGCC, the self-cleavage turned out to be 0.

For the variant UACGUAGGUGGUUUUCCCCUGAUAGUGCUAAGCGGGCCUGGAAGUUUGGACUGGGCAGAGCUCAACACAGUGUGGCAAAGUGGCUGUGGCUAGACUGCCUCUCUGGAUUCCUCGUCACUCAGCAGGGCAUCUCUGAGAGAAAUGCC, the self-cleavage is 1.93.

Turning to UACGUAGGUGGUUUUCCCCUGAUAGUGCUAAGAGGGCCUGGAAGUUUGGACUGGGCAGAGCUCAACACAGCGUGGCAAAGUGGCUGUGGCUAGACUGCCUCUCUGGAUUCCUCGUCACCCAGCAGGGCAUCUCUGAGAGAAAUGCC, the self-cleavage was 0.66.

For the variant UACGUAGGUGGUUUUCCCCUGAUAGUGCUAAGAGGGCCUGGAAGUUUGGACUGGGCAGAGCACAACACAGCGUGGCAAAGUGGCUGUGGCUAGACUGCCUCUCUGGAUUCCUCGUCACUCAGCAGGGCAUCUCUGAGAGAAAUGCC, the self-cleavage came to 0.01.

On to UACGUAGGUGGUUUUCCCCUGAUAGUGCUAAGAGGGCCUGGAAGUUUGGACUGGGCAGAGCCCAACACAGCGUGGCAAAGUGGCUGUGGCUAGACUGCCUCUCUGGAUUCCUCGUCACUCAGCAGGGCAUCUCUGAGAGAAAUGCC, for which the self-cleavage is 0.05.

With UACGUAGGUGGUUUUCCCCUGAUAGUGCUAAGAGGGCCUGGAAGUUUGGACUGGACAGAGCUCAACACAGCGUGGCAAAGUGGCUGUGGCUAGACUGCCUCUCUGGAUUCCUCGUCACUCAGCAGGGCAUCUCUGAGAGAAAUGCC, the self-cleavage came to 0.73.

For the variant UACGUAGGUGGUUUUCCCCUGAUAGUGCUAAGCGGGCCUGGAAGUUUGGACUGGGCAGAGCUCUACACAGCGUGGCAAAGUGGCUGUGGCUAGACUGCCUCUCUGGAUUCCUCGUCACUCAGCAGGGCAUCUCUGAGAGAAAUGCC, the self-cleavage came to 0.64.

With UACGUAGGUGGUUUUCCCCUGAUAGUGCUAAGUGGGCCUGGAAGUUUGGACUGGGCAGAGCUCAACACAGCGUAGCAAAGUGGCUGUGGCUAGACUGCCUCUCUGGAUUCCUCGUCACUCAGCAGGGCAUCUCUGAGAGAAAUGCC, the self-cleavage stood at 0.88.

With UACGUAGGUGGUUUUCCCCUGAUAGUGCUAAGAGGGCCUGGAAGUUUGGACUGGGCAGAGCUCAACACAGCGUGGCAAAGUGGCUGUGGCUAGACUGCCUCUCUGGACUCCUCGUCACUCAGCAGGGCAUCUCUGAGAGAAAUGCC, the self-cleavage worked out at 1.47.

Regarding UACGUAGGUGGUUUUCCCCUGAUAGUGCUAAGUGGGCCUGGAAGUUUGGACUGGGCAGAGCUCAACACAGCGUGGCAAAGUGGCUGUGGCUAGACUGCCUCUCUGGAUUCCUCGUCACUCAGCAGGGCAUCUCUGAGAGGAAUGCC, the self-cleavage stood at 1.83.

On to UACGUAGGUGGUUUUCCCCUGAUAGUGCUAAGAGGGCCUGGAAGUUUGGACUGGGCAGUGCUCAACACAGCGUGGCAAAGUGGCUGUGGCUAGACUGCCUCUCUGGAUUCCUCGUCACUCAGCAGGGCAUCUCUGAGAGAAAUGCC, for which the self-cleavage was found to be 0.65.

As for UACGUAGGUGGUUUUCCCCUGAUAGUGCUAAGCGGGCCUGGAAGUUUGGACUGGGCAGAGCUCAACACAGCGUGGCAAAGUGGCUGUGGCUAGACUGCCUCUCUGGAUUCCUCGUCACUCAGCAGGGCAUCUCUGAGAGAAAUGCC, the self-cleavage was found to be 1.17.

In the case of UACGUAGGUGGUUUUCCCCUGAUAGUGCUAAGUGGGCCUGGAAGUUUGGACUGGGCAGAGCUCAACACAGCGUGGCAAAGUGGCUGUGGCUAGACUGCCUCUCUGGAUUCCUCGUCACUCAGCAGGGCAUCUCUGAGAGAAAUGCC, the self-cleavage is 1.27.

For UACGUAGGUGGUUUUCCCCUGAUAGUGCUAAGUGGGCCUGGAAGUUUGGACUGGGCAGAGCUCAACACAGCGUGGCAAAGUGGCUGUGGGUAGACUGCCUCUCUGGAUUCCUCGUCACUCAGCAGGGCAUCUCUGAGAGAAAUGCC, the self-cleavage came out at 0.07.

Regarding UACGUAGGUGGUUUUCCCCUGAUAGUGCUAAGUGGGCCUGGAAGUUUGGACUGGGCAGAGCUCAACACAGCGUGGCAAAGUGGCUGUGGCUAGACUGCCUCUCUGGAUUCCUCGUCACUCAGCAGGGCAUCUCUGUGAGAAAUGCC, the self-cleavage amounted to 1.27.

Take UACGUAGGUGGUUUUCCCCUGAUAGUGCUAAGUGGGCCUGGAGGUUUGGACUGGGCAGAGCUCAACACAGCGUGGCAAAGUGGCUGUGGCUAGACUGCCUCUCUGGAUUCCUCGUCACUCAGCAGGGCAUCUCUGAGAGAAAUGCC: the self-cleavage stood at 0.64.
